The labels stand for the following.
B1: KRT71 (parent)
chain: FGSRSLYSLGGVRSLNVASGSGKS
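Also: lentivirally expressed fusions sorted by FACS into six bins by GFP to DsRed ratio, PSI derived from sequencing read proportions per bin multiplied by bin number.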

This series covers variants of B1. Nature of the series: protein stability index of a GFP-peptide fusion (GPS, HEK-293T) (PSI 1-6); higher = more stable. Particulars: c terminus: a fixed tail appended.
On to FGSRSLYSLGGVRSLNVCSGSGKS [A18C], for which the protein stability index came to 1.73. Regarding FGSRSLYSLGGVRSLNVGSGSGKS [A18G], the protein stability index worked out at 2.1. The value for FGSRSLYSLGGVRSLNVVSGSGKS [A18V] was 1.88; that for FGSRSLYSLGGVRSLNVPSGSGKS [A18P] was 2.2; that for FGSRSLYSLGGVRSLNVASGSKKS [G22K] was 1.73. With FGSRSLYSLGGVRSLNVASGSVKS [G22V] the figure was 1.33.

Take FGSRSLYSLGGVRSLNVASGSLKS [G22L]: the protein stability index is 1.64. For FGSRSLYSLGGVRSLNVASGSNKS [G22N], the protein stability index turned out to be 2.27. The value for FGSRSLYSLGGVRSLNVASGSPKS [G22P] was 1.89. FGSRSLYSLGGVRSLNVASGSEKS [G22E]: the protein stability index came to 2.83.

For FGSRSLYSLGGVRSLNVASGSFKS [G22F], the protein stability index was 1.49. With FGSRSLYSLGGVRSLNVASGSDKS [G22D] the figure was 2.15; with FGSRSLYSLGGVRSLNVASGSIKS [G22I], 1.57. Consider FGSRSLYSLGGVRSQNVASGSGKS [L15Q], for which the protein stability index was 2.51.

On to FGSRSLYSLGGVRSCNVASGSGKS [L15C], for which the protein stability index worked out at 2.35. On to FGSRSLYSLGGVRSFNVASGSGKS [L15F], for which the protein stability index worked out at 1.77. With FGSRSLYSLGGVRSYNVASGSGKS [L15Y], the protein stability index was found to be 2.62. With FGSRSLYSLGGVRSANVASGSGKS [L15A] the figure was 2.35.

Take FGSRSLYSLGGVRSWNVASGSGKS [L15W]: the protein stability index was 1.34. With FGSRSLYSLGGVRSGNVASGSGKS [L15G], the protein stability index amounted to 1.88.

As for FGSRSLYSLGGVRSRNVASGSGKS [L15R], the protein stability index is 2.28. As to FGSRSLYSLGGVRSKNVASGSGKS [L15K], the protein stability index came to 1.99. For FGSRSLYSLGGVRSNNVASGSGKS [L15N], the protein stability index came out at 2.33. With FGSRSLYSLGGVRSHNVASGSGKS [L15H] the figure was 1.37; with FGSRSLYSLGGVRSSNVASGSGKS [L15S], 1.92.

Consider FGSRSLYSLGGVRSLNVASGRGKS [S21R], for which the protein stability index was 2.5.

Consider FGSRSLYSLGGVRSLNVASGGGKS [S21G], for which the protein stability index was determined as 1.91. The value for FGSRSLYSLGGVRSLNVASGCGKS [S21C] was 1.49; that for FGSRSLYSLGGVRSLNVASGPGKS [S21P] was 2.07. As for FGSRSLYSLGGVRSLNVASGIGKS [S21I], the protein stability index came out at 2.18. The value for FGSRSLYSLGTVRSLNVASGSGKS [G11T] was 2.4. For FGSRSLYSLGDVRSLNVASGSGKS [G11D], the protein stability index is 2.25. With FGSRSLYSLGRVRSLNVASGSGKS [G11R], the protein stability index was 2.46. FGSRSLYSLGIVRSLNVASGSGKS [G11I]: the protein stability index was 5.35. The value for FGSRSLYSLGPVRSLNVASGSGKS [G11P] was 1.8; that for FGSRSLYSLGWVRSLNVASGSGKS [G11W] was 2.62; that for FGSRSLYSLGHVRSLNVASGSGKS [G11H] was 2.33.

For FGSRSLYSLGVVRSLNVASGSGKS [G11V], the protein stability index was 4.85.

Regarding FGSRSLYSLGQVRSLNVASGSGKS [G11Q], the protein stability index stood at 3.2.

For FGSRSLYSLGKVRSLNVASGSGKS [G11K], the protein stability index turned out to be 1.64. With WGSRSLYSLGGVRSLNVASGSGKS [F1W] the figure was 2.16; with SGSRSLYSLGGVRSLNVASGSGKS [F1S], 4.56. With GGSRSLYSLGGVRSLNVASGSGKS [F1G] the figure was 3.44; with PGSRSLYSLGGVRSLNVASGSGKS [F1P], 3.92. With QGSRSLYSLGGVRSLNVASGSGKS [F1Q] the figure was 4.4; with NGSRSLYSLGGVRSLNVASGSGKS [F1N], 3.85.

As to EGSRSLYSLGGVRSLNVASGSGKS [F1E], the protein stability index was 3.83. The value for VGSRSLYSLGGVRSLNVASGSGKS [F1V] was 3.81.

In the case of AGSRSLYSLGGVRSLNVASGSGKS [F1A], the protein stability index is 4.02.

Consider FGSRSLYSLAGVRSLNVASGSGKS [G10A], for which the protein stability index stood at 1.66. With FGSRSLYSLNGVRSLNVASGSGKS [G10N] the figure was 2.16; with FGSRSLYSLMGVRSLNVASGSGKS [G10M], 2.09; with FGSRSLYSLPGVRSLNVASGSGKS [G10P], 2.03. With FGSRSLYSLSGVRSLNVASGSGKS [G10S] the figure was 1.83; with FGSRSLYSLQGVRSLNVASGSGKS [G10Q], 2.08. On to FGSRSLYSLKGVRSLNVASGSGKS [G10K], for which the protein stability index was 1.9. With FGSRSLYSLFGVRSLNVASGSGKS [G10F] the figure was 1.5; with FGSRSLYSLHGVRSLNVASGSGKS [G10H], 2.56; with FGSRSLYSLGGVRSLNAASGSGKS [V17A], 1.91. The value for FGSRSLYSLGGVRSLNPASGSGKS [V17P] was 1.92. For the variant FGSRSLYSLGGVRSLNHASGSGKS [V17H], the protein stability index is 1.97. Turning to FGSRSLYSLGGVRSLNWASGSGKS [V17W], the protein stability index came out at 1.86. As for FGSRSLYSLGGVRSLNMASGSGKS [V17M], the protein stability index turned out to be 2.38. As to FGSRSLYSLGGVRSLNKASGSGKS [V17K], the protein stability index is 2.01. For the variant FGSRSLYSLGGVRSLGVASGSGKS [N16G], the protein stability index came to 1.1. Consider FGSRSLYSLGGVRSLTVASGSGKS [N16T], for which the protein stability index turned out to be 1.47. With FGSRSLYSLGGVRSLKVASGSGKS [N16K], the protein stability index came to 2.02. For FGSRSLYSLGGVRSLEVASGSGKS [N16E], the protein stability index was found to be 1.73. Turning to FGSRSLYSLGGVRSLDVASGSGKS [N16D], the protein stability index came to 2.38. With FGSRSLYSLGGVRSLYVASGSGKS [N16Y] the figure was 2.16; with FGSRSLYSLGGVRSLMVASGSGKS [N16M], 1.83; with FGSRSLYSLGGVRSLCVASGSGKS [N16C], 1.97. As for FGSRSLYSLGGVRRLNVASGSGKS [S14R], the protein stability index was determined as 1.5. With FGSRSLYSLGGVRYLNVASGSGKS [S14Y] the figure was 2.36; with FGSRSLYSLGGVRKLNVASGSGKS [S14K], 1.81. Consider FGSRSLYSLGGVRWLNVASGSGKS [S14W], for which the protein stability index worked out at 1.44.

Turning to FGSRSLYSLGGVRLLNVASGSGKS [S14L], the protein stability index is 2.04. The value for FGSRSLYSLGGVRCLNVASGSGKS [S14C] was 1.58; that for FGSRSLYSLGGVRNLNVASGSGKS [S14N] was 2.38. As for FGSRSLYSLGGVRTLNVASGSGKS [S14T], the protein stability index was found to be 1.74. For the variant FGSRSLYSLGGVRQLNVASGSGKS [S14Q], the protein stability index amounted to 1.86.

Consider FGSRSLYSLGGVRHLNVASGSGKS [S14H], for which the protein stability index worked out at 2.

Turning to FGSRSLYYLGGVRSLNVASGSGKS [S8Y], the protein stability index was 1.2. With FGSRSLYTLGGVRSLNVASGSGKS [S8T] the figure was 1.89; with FGSRSLYELGGVRSLNVASGSGKS [S8E], 2.75. The value for FGSRSLYGLGGVRSLNVASGSGKS [S8G] was 2; that for FGSRSLYPLGGVRSLNVASGSGKS [S8P] was 1.72. With FGSRSLYALGGVRSLNVASGSGKS [S8A] the figure was 2.17; with FGSRSLYLLGGVRSLNVASGSGKS [S8L], 2.2; with FGSRSLYSLGGVRSLNVASGSGAS [K23A], 1.47. Turning to FGSRSLYSLGGVRSLNVASGSGDS [K23D], the protein stability index is 1.92. The value for FGSRSLYSLGGVRSLNVASGSGRS [K23R] was 2.35; that for FGSRSLYSLGGVRSLNVASGSGTS [K23T] was 1.56. The value for FGSRSLYSLGGVRSLNVASGSGVS [K23V] was 1.88.

The values above are taken from the supplement of paper PMC10567573.
